The results in this text go back to the RNAGym collection of RNA variant scans (doi:10.7554/elife.80360).

B1: HDV Ribozyme (parent)
chain: GGCCGGCAUGGUCCCAGCCUCCUCGCUGGCGCCGGCUGGGCAACAUUCCGAGGGGACCGUCCCCUCGGUAAUGGCGAAUGGGACCCA

Variants of B1 are the subject of this data set. Nature of the data set: self-cleavage, relative activity (ratio to wild type); higher = more cleavage; co-transcriptional.
For the variant G28A C36A, the self-cleavage stood at 0.203. Next, G28A C36U: 0.0811; G28U A51C: 0.222. For the variant G28U A51G, the self-cleavage was determined as 0.117. For G29C A42C the value was 0.

Take U27C A45G: the self-cleavage was determined as 0.511. G28C C36A: the self-cleavage was determined as 0.0462. For U27G A71G the value was 0.875.

Consider U27G A71U, for which the self-cleavage is 0.598. Next, G28C G29A: 0.0692; G29A G74A: 0.0773; U27A G80A: 0.499. Next, G28A A56U: 0.111; G28A A56C: 0; U27A C66U: 0.789. In the case of G29C A43G, the self-cleavage amounted to 0.0692. As to G28A, the self-cleavage came to 0.0977. On to G28U, for which the self-cleavage was found to be 0.108. Next, G28C: 0.0814; G28A G39C: 0.106. Next, G28A G39A: 0.187; U27C C48A: 1.02; U27C C48U: 0.604. For U27A G53C the value was 0.831; for G29A C49G, 0.225. With U27G U69G, the self-cleavage is 0.798. For U27G U69C, the self-cleavage was found to be 0.969. Next, U27G G39C: 0.0723. Next, U27A G34A: 0.256. For G28C C58U the value was 0.0369; for U27C U69G, 0.712; for G28U C84G, 0.13. As to U27A G29A, the self-cleavage turned out to be 0.135. Next, G28U A77U: 0.0707; U27G A77U: 0.346; G28A U47C: 0.0739. For G29C C61A the value was 0.0791; for G29C C66A, 0.0475; for U27C G29A, 0.125. For U27C G29C the value was 0.107. As for U27A C64G, the self-cleavage was determined as 1.05.

Regarding U27A C64A, the self-cleavage is 0.703. Next, G28U G38U: 0.14; G28A U79C: 0.0542; U27C G82U: 0.208. Next, G28A G67C: 0.0519.

Take U27C A42C: the self-cleavage came to 0.431. Next, U27A C85G: 0.793; G29A A77C: 0.111; G29A A87G: 0.135. With G29A A87U, the self-cleavage worked out at 0.155. For G29A A87C the value was 0.0602. Next, U27A G74A: 0.0437. For U27A G74U the value was 0.427; for U27G A56C, 0.712.

For the variant G29A U60A, the self-cleavage is 0.101. Next, U27A G82U: 0.906; U27G C64A: 0.705; U27C C44U: 0.19. As for G29A U47C, the self-cleavage is 0.16. Next, G28U C61U: 0.193; U27C G52A: 0.884. As to G29A G73C, the self-cleavage was 0.0639. Next, G29A G73A: 0.143; U27A G55A: 1.08; G28A A45G: 0.0415.

For the variant U27A G67C, the self-cleavage was found to be 0.59. For U27A G67A the value was 1.32; for G29A C84G, 0.102; for U27C G80U, 0.21. For G29A G35A the value was 0.0923; for U27A U65G, 1.12. Next, U27A U65C: 0.957; G28C C63A: 0.17.

As for G28C C63G, the self-cleavage amounted to 0.101. Next, U27A C62G: 0.929. For U27A C62A the value was 0.872; for G28U C32A, 0.0496. For G29A C62G the value was 0.169; for G29A G34U, 0.0601; for U27G G80A, 0.533.

Consider U27G A70C, for which the self-cleavage turned out to be 0.554. For U27C C57A the value was 0.692. Turning to U27G G34U, the self-cleavage is 0.538. Next, G29A A43C: 0.0978. Next, G28U U65A: 0.0339; G28A G31A: 0.101. For G29A U72G the value was 0.0923; for G29A U72C, 0.0852; for G28C G38U, 0.162. Take G28C G38C: the self-cleavage turned out to be 0.0426.

With U27A G28U, the self-cleavage is 0.158. Next, U27A U47A: 0.7. For U27A U47C the value was 0.391; for G28A G55U, 0.056. For G29A U79A the value was 0.166; for G29A U79C, 0.113. Regarding G28C G39U, the self-cleavage stood at 0.125.

As for U27C C84G, the self-cleavage is 0.554. On to G29A G40C, for which the self-cleavage amounted to 0.0656.

As to G29A G40U, the self-cleavage was 0.0831.

With G29C C44U, the self-cleavage is 0.

On to U27A U60A, for which the self-cleavage was found to be 0.918. For U27C C63U the value was 0.73. Next, G29C C30A: 0.156; G28A A71G: 0.0831. For U27C A87U the value was 0.6; for G28A G74A, 0.131. Regarding G28A G38C, the self-cleavage came to 0.0978.

Turning to G28A G53A, the self-cleavage is 0.02.

Consider G28A G53C, for which the self-cleavage was found to be 0.0831. For G28A G82A the value was 0.0604; for G29A G38C, 0.0292; for G29A G38A, 0.0623. For G28C G55C the value was 0.0692. For G28C G81U the value was 0.0639; for G29C C48G, 0.095; for U27G C84U, 0.612. For U27G C84G, the self-cleavage came out at 0.378. Regarding U27G C84A, the self-cleavage is 0.831. For U27A C86A the value was 0.733. Next, G28C A42C: 0.0437. Next, G28C C48A: 0.166; G28U C66U: 0.19. As for U27A G59U, the self-cleavage is 0.95. For the variant U27A G59C, the self-cleavage was determined as 0.939. Next, G28A C30G: 0.117.

Turning to G29C C32G, the self-cleavage was found to be 0.0639. For U27G C41U the value was 0.831; for U27C C61G, 0.795; for G28U U46A, 0.111. Next, G28A C48U: 0.0997; G28A U69A: 0.166; G28A U69C: 0.0361. On to G28A C63U, for which the self-cleavage is 0.107. For G29C C36A the value was 0.0297.

As to G29A G82C, the self-cleavage was 0.0627. For G28U C85A the value was 0.203; for G28A C75G, 0; for G28A C75U, 0.0563. Next, G29A C30G: 0.0415. Next, G29A C86A: 0.155; U27A U46A: 0.831. With G29C C64A, the self-cleavage was 0.0755. As to G29C C64G, the self-cleavage amounted to 0.095. As to U27A G68C, the self-cleavage stood at 0.688. For G28C C57U the value was 0.0277; for G28U G52C, 0.154; for U27A U72C, 0.277. For U27G C75A the value was 0.0755. With U27C C36G, the self-cleavage came out at 0.185. Take G28U U72C: the self-cleavage was found to be 0.0898. In the case of G28U U72G, the self-cleavage was determined as 0.0554.

On to G28A C84U, for which the self-cleavage stood at 0.0744. As for G28U A78G, the self-cleavage came to 0.158.

Take G29A G59A: the self-cleavage is 0.179. For G29A G59C the value was 0.123.

For the variant U27A G52U, the self-cleavage came out at 0.846. Next, G29A C66G: 0.204; G29A C85A: 0.17; G29C C49U: 0.128.

For G29C C49A, the self-cleavage worked out at 0.222. For G29A C33G the value was 0.0346; for G29A C33U, 0.111; for G28C G76A, 0.106. For G29A C75A the value was 0.0852; for G28U A45C, 0.148.
